These results are taken from paper PMC12209146 (Cellular and Molecular Life Sciences: CMLS, 2025).

In the assay the target is toxin B (TcdB) from Clostridioides difficile VPI 10,463 (Clostridioides difficile VPI 10,463, UniProt P18177 1-2366). Description: co-sedimentation; in vitro precipitation assay: TcdB (50 ng, 2 ng/µl) with α-defensin-6 (6 µM) or Angie peptides (100 µM) in 25 µl PBS, 30 min at 37 °C; centrifuged 20 min, 14,000 rpm, 4 °C; supernatant and pellet immunoblotted for TcdB. The conditions noted are these: both partners purified. On the technique in general: A western blot detects proteins with antibodies after separation by electrophoresis.
Chain of toxin B (TcdB) from Clostridioides difficile VPI 10,463 (P18177 whole entry): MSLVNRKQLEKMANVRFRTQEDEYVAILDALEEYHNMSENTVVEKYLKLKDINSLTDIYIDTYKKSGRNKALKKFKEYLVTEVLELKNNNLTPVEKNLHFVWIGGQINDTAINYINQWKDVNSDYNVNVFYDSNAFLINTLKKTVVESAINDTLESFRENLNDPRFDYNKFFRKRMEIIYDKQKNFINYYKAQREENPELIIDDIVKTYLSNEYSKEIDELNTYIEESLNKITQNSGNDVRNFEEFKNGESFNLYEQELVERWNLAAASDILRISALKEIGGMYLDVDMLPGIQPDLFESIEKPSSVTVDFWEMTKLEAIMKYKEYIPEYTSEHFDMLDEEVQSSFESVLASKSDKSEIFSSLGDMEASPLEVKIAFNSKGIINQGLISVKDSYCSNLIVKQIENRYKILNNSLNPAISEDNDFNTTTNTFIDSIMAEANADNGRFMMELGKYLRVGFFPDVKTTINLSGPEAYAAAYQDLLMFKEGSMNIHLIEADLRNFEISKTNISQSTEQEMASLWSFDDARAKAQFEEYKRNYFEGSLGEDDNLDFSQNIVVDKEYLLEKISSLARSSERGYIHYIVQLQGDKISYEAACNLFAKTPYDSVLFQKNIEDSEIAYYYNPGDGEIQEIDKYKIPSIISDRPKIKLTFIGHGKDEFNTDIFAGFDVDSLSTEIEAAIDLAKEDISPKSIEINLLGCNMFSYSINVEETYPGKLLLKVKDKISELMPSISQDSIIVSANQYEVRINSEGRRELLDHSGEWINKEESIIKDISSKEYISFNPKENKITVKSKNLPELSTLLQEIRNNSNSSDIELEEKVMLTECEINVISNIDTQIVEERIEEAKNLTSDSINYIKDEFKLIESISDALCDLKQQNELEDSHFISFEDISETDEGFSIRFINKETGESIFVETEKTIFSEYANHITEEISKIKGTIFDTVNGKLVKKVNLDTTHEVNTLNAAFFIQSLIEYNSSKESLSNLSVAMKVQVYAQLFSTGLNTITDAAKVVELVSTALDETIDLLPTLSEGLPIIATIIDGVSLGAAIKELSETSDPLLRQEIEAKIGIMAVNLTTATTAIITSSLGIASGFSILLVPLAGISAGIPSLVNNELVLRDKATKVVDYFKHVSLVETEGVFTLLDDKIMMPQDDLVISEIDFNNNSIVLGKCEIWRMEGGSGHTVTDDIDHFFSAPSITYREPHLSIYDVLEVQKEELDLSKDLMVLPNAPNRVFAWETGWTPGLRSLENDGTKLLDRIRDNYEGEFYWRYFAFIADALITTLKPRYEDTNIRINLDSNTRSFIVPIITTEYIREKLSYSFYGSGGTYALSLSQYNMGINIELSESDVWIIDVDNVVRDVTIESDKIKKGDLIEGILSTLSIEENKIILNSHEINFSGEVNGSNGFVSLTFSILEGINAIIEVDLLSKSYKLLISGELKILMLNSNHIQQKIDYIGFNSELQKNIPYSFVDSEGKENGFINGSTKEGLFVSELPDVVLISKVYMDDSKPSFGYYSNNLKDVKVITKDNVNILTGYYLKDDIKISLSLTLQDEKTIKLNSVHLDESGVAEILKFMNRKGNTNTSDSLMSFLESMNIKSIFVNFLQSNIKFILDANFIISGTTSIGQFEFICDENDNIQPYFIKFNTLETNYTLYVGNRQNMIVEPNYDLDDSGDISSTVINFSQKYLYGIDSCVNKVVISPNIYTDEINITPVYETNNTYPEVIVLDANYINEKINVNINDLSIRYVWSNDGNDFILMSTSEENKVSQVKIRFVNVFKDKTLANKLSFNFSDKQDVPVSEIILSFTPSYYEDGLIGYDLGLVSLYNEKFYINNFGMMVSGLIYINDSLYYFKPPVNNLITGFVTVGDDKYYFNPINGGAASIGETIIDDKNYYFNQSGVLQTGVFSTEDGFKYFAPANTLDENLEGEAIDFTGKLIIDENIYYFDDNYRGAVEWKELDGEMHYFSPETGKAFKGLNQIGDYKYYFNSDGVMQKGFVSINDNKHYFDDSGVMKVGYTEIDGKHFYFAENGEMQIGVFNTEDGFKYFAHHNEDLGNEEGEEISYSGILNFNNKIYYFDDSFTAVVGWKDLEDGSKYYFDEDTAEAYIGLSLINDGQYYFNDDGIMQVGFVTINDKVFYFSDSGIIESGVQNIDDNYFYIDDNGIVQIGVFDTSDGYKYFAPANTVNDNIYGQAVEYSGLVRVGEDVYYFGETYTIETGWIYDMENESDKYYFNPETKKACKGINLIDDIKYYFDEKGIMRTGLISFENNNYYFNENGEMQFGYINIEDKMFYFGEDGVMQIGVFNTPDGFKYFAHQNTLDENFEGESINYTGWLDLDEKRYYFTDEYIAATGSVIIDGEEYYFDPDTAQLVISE

In the case of AFTCHCRRSCYSTEYSYGTCTVMGINHRFCCL (peptide, UniProt Q01524 69-100, looked up) [human peptide α-defensin-6], the binding result is listed as “binds”.
